Assay [1] deals with T1, Cytochrome c oxidase (Bos taurus, UniProt P68530).
T1 chain: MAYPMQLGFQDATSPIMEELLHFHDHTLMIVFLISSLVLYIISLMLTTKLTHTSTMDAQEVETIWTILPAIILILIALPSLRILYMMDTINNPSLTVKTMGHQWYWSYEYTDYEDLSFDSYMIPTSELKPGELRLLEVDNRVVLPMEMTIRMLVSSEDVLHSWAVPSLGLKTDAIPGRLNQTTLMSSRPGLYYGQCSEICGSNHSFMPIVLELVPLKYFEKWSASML
Nature of the assay: analytical ultracentrifugation.

In assay [2] the target is T2, Cytochrome c oxidase (Bos taurus, UniProt P68530).
T2 chain: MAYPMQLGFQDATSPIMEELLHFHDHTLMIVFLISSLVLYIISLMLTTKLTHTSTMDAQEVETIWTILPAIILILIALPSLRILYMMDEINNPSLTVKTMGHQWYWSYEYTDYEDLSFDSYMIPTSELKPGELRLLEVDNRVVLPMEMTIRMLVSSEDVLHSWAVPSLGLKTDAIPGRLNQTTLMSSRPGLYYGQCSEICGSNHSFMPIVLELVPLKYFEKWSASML
Nature of the assay: analytical ultracentrifugation.

Assay [3] deals with T2, Cytochrome c oxidase. Put plainly: laser flash photolysis.

B1: Cytochrome c (protein)
chain: not shown
Consider B1, for which the Kd in assay [1] worked out at 2.1 µM; in assay [2], 4.7 µM.

B2: Cytochrome c (protein)
chain: not shown
Take B2: the Kd in assay [2] was 28.4 µM.

B3: Ru-39-Cytochrome c (protein)
chain: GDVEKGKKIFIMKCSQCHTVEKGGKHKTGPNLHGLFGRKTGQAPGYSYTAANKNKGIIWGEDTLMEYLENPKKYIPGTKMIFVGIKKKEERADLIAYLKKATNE
modifications: (dimethylbipyridine)(bisbipyridine)ruthenium at Cys-39
For B3, the affinity in assay [3], expressed as Kd, was 8 µM.

One may read the Kd as the concentration at which binding is half-saturated. A low value points to a tighter complex.

Source of the values: PMC9777161 (2022).
